Test results from article PMC6659695.

Legend:
[1] = target: microtubules (paclitaxel-stabilized, polymerized from tubulin); assay: optical tweezers unbinding-force assay (constant-pulling); as a1 but with 1 mM ATP; non-reducing conditions
Target sequence in this assay (chain, as listed by the source, chain 1 of 2): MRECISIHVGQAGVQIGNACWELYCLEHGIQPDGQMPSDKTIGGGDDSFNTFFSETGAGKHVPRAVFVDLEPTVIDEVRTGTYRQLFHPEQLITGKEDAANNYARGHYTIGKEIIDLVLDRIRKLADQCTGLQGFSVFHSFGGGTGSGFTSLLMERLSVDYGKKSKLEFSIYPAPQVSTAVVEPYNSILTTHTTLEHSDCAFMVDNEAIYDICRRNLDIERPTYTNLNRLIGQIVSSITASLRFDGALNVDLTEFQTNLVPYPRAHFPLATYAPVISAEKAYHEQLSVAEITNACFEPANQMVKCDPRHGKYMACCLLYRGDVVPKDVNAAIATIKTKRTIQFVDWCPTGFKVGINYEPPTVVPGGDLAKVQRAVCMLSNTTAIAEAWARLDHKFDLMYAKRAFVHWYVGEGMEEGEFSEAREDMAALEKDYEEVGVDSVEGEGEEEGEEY
Target sequence in this assay (chain, as listed by the source, chain 2 of 2): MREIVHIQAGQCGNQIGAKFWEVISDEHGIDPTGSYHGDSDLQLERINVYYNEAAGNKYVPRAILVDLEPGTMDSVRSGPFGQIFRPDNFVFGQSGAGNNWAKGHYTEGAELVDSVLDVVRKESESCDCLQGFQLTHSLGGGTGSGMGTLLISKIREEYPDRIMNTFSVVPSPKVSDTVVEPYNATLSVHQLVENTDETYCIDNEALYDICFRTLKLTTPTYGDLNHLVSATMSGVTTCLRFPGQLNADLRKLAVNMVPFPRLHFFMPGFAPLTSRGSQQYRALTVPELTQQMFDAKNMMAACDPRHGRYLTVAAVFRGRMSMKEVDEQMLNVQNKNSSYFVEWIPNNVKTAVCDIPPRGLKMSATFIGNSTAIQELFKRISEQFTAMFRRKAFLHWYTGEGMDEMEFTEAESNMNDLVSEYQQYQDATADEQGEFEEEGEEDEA

[2] = target: microtubules (paclitaxel-stabilized, polymerized from tubulin); assay: optical tweezers unbinding-force assay (constant-pulling); as a1 but with 1 mM ATP and TCEP (2 mM by the legend) to cleave the disulfide bonds of the stalk helices
Target sequence in this assay (P02550 whole entry, chain 1 of 2): as the sequence (chain, as listed by the source, chain 1 of 2) above
Target sequence in this assay (P02554 whole entry, chain 2 of 2, further chain): as the sequence (chain, as listed by the source, chain 2 of 2) above

[3] = target: microtubules (paclitaxel-stabilized, polymerized from tubulin); assay: optical tweezers unbinding-force assay (constant-pulling); motor held by its GFP on anti-GFP Fab-coated ~1-μm beads in an optical trap, MTs immobilized on the coverslip (biotin-streptavidin) and swept past the bead; single-molecule level; no nucleotide (apo, residual ATP 37.5 nM); non-reducing conditions; 30 mM HEPES, 2 mM MgAc2, 1 mM EGTA, 20 μM paclitaxel, pH 7.2; theoretical loading rate 5.6 pN/s; primary unbinding events only
Target sequence in this assay (P02550 whole entry, chain 1 of 2): as the sequence (chain, as listed by the source, chain 1 of 2) above
Target sequence in this assay (P02554 whole entry, chain 2 of 2, further chain): as the sequence (chain, as listed by the source, chain 2 of 2) above

[4] = target: microtubules (paclitaxel-stabilized, polymerized from tubulin); assay: single-molecule TIRF dwell-time measurement; zero load; labeled single heads binding to and leaving surface-immobilized Cy5-labeled MTs, 100 ms per frame; apo state (2 U/ml apyrase); 30 mM HEPES, 2 mM MgAc2, 1 mM EGTA, pH 7.2; unbinding rate from an exponential fit of the CDF of dwell times
Target sequence in this assay (chain, as listed by the source, chain 1 of 2): as the sequence (chain, as listed by the source, chain 1 of 2) above
Target sequence in this assay (chain, as listed by the source, chain 2 of 2): as the sequence (chain, as listed by the source, chain 2 of 2) above

Work on “AAA1 E/Q Dyn1_(331kDa) (E/Q mutation in the AAA1 Walker B motif), P36022 1219-4092” yielded a mean unbinding force (both directions) [1] of less than 1 pN.

In the case of “AAA1 E/Q Dyn1_(331kDa)-α CL (AAA1 Walker B E/Q; K3077C, A3250C) (from UniProt P36022 1219-4092) (domain or fragment)”, the mean unbinding force (both directions) [2] is reported as less than 1 pN.

With “Dyn1_(331kDa)-α CL (K3077C, A3250C; stalk helices disulfide cross-linked in the α-registry) (from UniProt P36022 1219-4092) (domain or fragment)” the mean unbinding force, forward load [3] was 2.2 pN.

Substance “Dyn1_(331kDa)-β CL (I3076C, L3247C; stalk helices disulfide cross-linked in the β-registry) (from UniProt P36022 1219-4092) (domain or fragment)” has a mean unbinding force, backward load [3] of 0.7 pN and a mean unbinding force, forward load [3] of 0.7 pN.

With “GFP-Dyn1_(331kDa), tail-truncated monomeric S. cerevisiae cytoplasmic dynein motor domain (wild type) (from UniProt P36022 1219-4092) (domain or fragment)” the mean unbinding force, forward load [3] was 1.6 pN.

“SNAP-tagged Dyn1_(331kDa)-β CL (β-mutant heads labeled via an inserted N-terminal SNAP-tag), P36022 1219-4092” showed an average MT-bound time [4] of 290 ms.
